According to the DeepSol protein solubility set:

Test: soluble on expression in E. coli; label from the status in PepcDB or PDB records

Sequence | soluble on expression in E. coli
MLKRRQPKYCSFMDSIDNSTTIIRKNLNRFIRELTDDGKLDFESIPYQNLQKEVANQDEEGCENVIEVLLDTTSRSGCPDRKLILQLFNSFFLQFPIFRENLLNDPSEFLELMFETNPIRNPLPGSKKHGNELKVEAITVIKSWEKEKCVKNDARMKCLVVTLKKTKFVDYENGAKKIEAERKRKKILEERKMKMIENSVNVYSSKYHEIKNDAETLSMELTTTMQMLVPSFTTADPEVPSTSTSTPSAISDSKSFEIFIPDLTPEISVSSENDAIVEAFLGAKLSLIHRVQTLRKLVKRLQLLKQPGEKLAQEIIDYRDGIKNLVLKADELRIINPRPPKNKRKKSDDDFIDVDISIDDILMVQYAEKLEVDVKSKDESEKITESPEKHKIEMKNEKPVKIKTVPFGLDLKYWGEERKDVEVPKNNADCHRFWRSADEGTVAGKAQQSIYTQRQYTFIGKAPDNRKVCLAKMKSGKLCPRKDYYTCPLHGKIVDRDDEGRPINEEDRLEENYRKEQNHLKEADKIRQMIEKEYESKTKRRKKHDVDTTASEDVRNRLQKKLLDPKTIQRVSADLDASRKNRLEKNFGQQFSHF | not soluble
MKIKTRFAPSPTGYLHVGGARTALYSWLFARNHGGEFVLRIEDTDLERSTPEAIEAIMDGMNWLSLEWDEGPYYQTKRFDRYNAVIDQMLEEGTAYKCYCSKERLEALREEQMAKGEKPRYDGRCRHSHEHHADDEPCVVRFANPQEGSVVFDDQIRGPIEFSNQELDDLIIRRTDGSPTYNFCVVVDDWDMEITHVIRGEDHINNTPRQINILKALKAPVPVYAHVSMINGDDGKKLSKRHGAVSVMQYRDDGYLPEALLNYLVRLGWSHGDQEIFTREEMIKYFTLNAVSKSASAFNTDKLLWLNHHYINALPPEYVATHLQWHIEQENIDTRNGPQLADLVKLLGERCKTLKEMAQSCRYFYEDFAEFDADAAKKHLRPVARQPLEVVRDKLAAITDWTAENVHHAIQATADELEVGMGKVGMPLRVAVTGAGQSPALDVTVHAIGKTRSIERINKALDFIAERENQQ | soluble
MTDIISQNENKDDFEDGELPEDGEICDDEDESVKAVPSKSSESAPGAHIAPAHPEKTSGRDSRERVRRFEGNSPPRERDPDPFGSHNDAPDGNDYFGGDKDYRSGAAASSEEEPFSDTDYRVNRRRRLSPSHDDGDFDPRSKRPYYGGRGGFRGGFRNGAKPRFQTEHQICKFFREGYCRDGDNCLYSHQAEDSLRRPVLCNFYANSFCKKGLQCLMLHGEFPCKSFHKGQCNHDPCRFSHVPLTDYTRPIIEKILADEEARQAHQAQQAQTYRQNPVANAAAAAAAAQVMPRRRVLLPGGPNMNGSSPPHATPVIHAPIPQASHPSQLPPPAVVVPTIQRNPGPGIPIHQQYPVAPAAGGYFNQGPRPEQVQGLPPPRTIEPPRLSTQTPPIMHQQQPQLMRPMHPVPIQHPHLQQPGLVQPPQIVSQERHTASPQGFNLEAMLNKMANGEKLISSPRNNVVDDSPASPPPSNYSSMFGSSNRVAVIPQTVQVTWGLVRVQRRLPYSNVENPDRIAANDPRRAKAIAKQFDAFSSLLGAGGNAVSDPRLRAQKEKNDRQQNTMPFSSWMPQIS | not soluble
MKVFTEKIPNIPWEERPEGYTGPVWRYSKNPIIGRNPVPKGARVFNSAVVPYNGEFVGVFRIDHKNTRPFLHFGRSKDGINWEIEPEEIQWVDVNGEPFQPSYAYDPRVVKIEDTYYITFCTDDHGPTIGVGMTKDFKTFVRLPNAYVPFNRNGVLFPRKINGKYVMLNRPSDNGHTPFGDIFLSESPDMIHWGNHRFVLGRSSYNWWENLKIGAGPYPIETSEGWLLIYHGVTLTCNGYVYSFGAALLDLDDPSKVLYRSRYYLLTPEEEYETVGFVPNVVFPCAALCDADTGRVAIYYGAADTHVALAFGYIDEIVDFVKRNSM | not soluble
MSKRLPPLNALRVFDAAARHLSFTRAAEELFVTQAAVSHQIKSLEDFLGLKLFRRRNRSLLLTEEGQSYFLDIKEIFSQLTEATRKLQARSAKGALTVSLPPSFAIQWLVPRLSSFNSAYPGIDVRIQAVDRQEDKLADDVDVAIFYGRGNWPGLRVEKLYAEYLLPVCSPLLLTGEKPLKTPEDLAKHTLLHDASRRDWQAYTRQLGLNHINVQQGPIFSHSAMVLQAAIHGQGIALANNVMAQSEIEAGRLVCPFNDVLVSKNAFYLVCHDSQAELGKIAAFRQWILAKAATEQEKFRFRYEQ | not soluble
MAFRQPNTKELKVIRKALSYYGSGDFLSHYALLVKEGEKKEVYGVSKELYGVIGELNPHYAGVKIGEVGRRFRFSLEGTFWLLRNSRNRVWVNERGEMLFLYGRDIFAGSVERASEFGENSIVFVCNRFDDVLGIGRSRHSSDELSNLPEDKVFVENLVDRGEYLRHQKTYLSF | not soluble
MGSDKIHHHHHHMRVLVINSGSSSIKYQLIEMEGEKVLCKGIAERIGIEGSRLVHRVGDEKHVIERELPDHEEALKLILNTLVDEKLGVIKDLKEIDAVGHRVVHGGERFKESVLVDEEVLKAIEEVSPLAPLHNPANLMGIKAAMKLLPGVPNVAVFDTAFHQTIPQKAYLYAIPYEYYEKYKIRRYGFHGTSHRYVSKRAAEILGKKLEELKIITCHIGNGASVAAVKYGKCVDTSMGFTPLEGLVMGTRSGDLDPAIPFFIMEKEGISPQEMYDILNKKSGVYGLSKGFSSDMRDIEEAALKGDEWCKLVLEIYDYRIAKYIGAYAAAMNGVDAIVFTAGVGENSPITREDVCSYLEFLGVKLDKQKNEETIRGKEGIISTPDSRVKVLVVPTNEELMIARDTKEIVEKIGR | not soluble
MASIELRNVQTELAAKNLQFKVLTEKFLEQRKELFDAKKTDSNVEYVECLSEKLRVATERISDLEKETKEGKQVANEEIGRLEKLLREAQQKRDAKIDESYQTFLRIELLVANLGESTDPENEKRIKNLMPAAKTGIPPEGVLRLTINALDSAARESKKKTMAIESLTKQVDDANKLTEVYMKRLEELEDKHRFEEALTLKIQAMMIETTGQLEAQKKIIADLQKKNDDLMKEEEGEEDYEEEENYEVEEDFEDEEEYDEEGEEEDYE | not soluble
MSDVAETVVAQEPEVVEPVEEKPTETGSDDVVVIDEKTSEQNGEKTEETQAEATEEKNETEAEEADKDKAVENGEAKDTNGNDRKRVSSAHEEAPVADAEEDAPLTKKSKVEDEVDVAASGDAPAVAAE | soluble
MSLSVYEKVNALDKRAIEELFLSEDILMENAAMALERAVLQNASLGAKVIILCGSGDNGGDGYALARRLVGRFRVLVFEMKLTKSPMCQLQKERAKKAGVVIKTYEENALNQNLECDVLIDCVIGSHFKGKLEPFLNFESLSQKARFKIACDIPSGIDSKGRVDKRAFKADLTISMGAIKSCLLSDRAKDYVGELKVGHLGVFNPIYEIPTDTFLLEKSDLKLPLRDKKNAHKGDYGHAHVLLGKHSGAGLLSALSALSFGSGVVSVQALECEITSNNKPLELVFCENFPNLLSAFALGMGLENIPKDFNRWLELAPCVLDAGVFYHKEILQALEKEAVLTPHPKEFLSLLNLVGINISMLELLDNKLEIARDFSQKYPKVVLLLKGANTLIAHQGQVFINILGSVALAKAGSGDVLAGLILSLLSQNYTPLDAAINASLAHALASLEFKNNYALTPLDLIEKIKQLEGHHHHHH | soluble
MTDKTIAFSLLDLAPIPEGSSAREAFSHSLDLARLAEKRGYHRYWLAEHHNMTGIASAATSVLIGYLAANTTTLHLGSGGVMLPNHSPLVIAEQFGTLNTLYPGRIDLGLGRAPGSDQRTMMALRRHMSGDIDNFPRDVAELVDWFDARDPNPHVRPVPGYGEKIPVWLLGSSLYSAQLAAQLGLPFAFASHFAPDMLFQALHLYRSNFKPSARLEKPYAMVCINIIAADSNRDAEFLFTSMQQAFVKLRRGETGQLPPPIQNMDQFWSPSEQYGVQQALSMSLVGDKAKVRHGLQSILRETDADEIMVNGQIFDHQARLHSFELAMDVKEELLG | soluble
MAADGTYDELERGEKSKLRDDVVDIQKKPFSILFMGVEDYSTNGEHGRTDSLIVVTLDPKKKSMKMLSIPRDTRVHLASDTTGTKTKINAAYAKGGKDETIETVEDFLGIPIDYYATVDFDGFKDVIDEIGGIDVDVPFDFSEKSDVSKSKRIYFKKGNMHLNGEEALAYARMRKQDKRGDFGRNDRQKQILKAALDQISKPQNLAKIDTIAQKASKNIQTNFRITQALALQQIYSGFAGDDIKTLNITGQDLTIANVYYFEPDQQNLENVQNELTHHLYPLEHHHHHH | soluble
TLTKHEQDILLKELGPHVDTPAHIVETGLGAYHALFTAHPQYISHFSRLEGHTIENVMQSEGIKHYARTLTEAIVHMLKEISNDAEVKKIAAQYGKDHTSRKVTKDEFMSGEPIFTKYFQNLVKDAEGKAAVEKFLKHVFPMMAAEI | soluble
